Test results reported in publication PMC3735172.
Where two headings read alike, the source gives them in different places.

Tests used:
Test in all cases: EMSA
MtAlba(I39) [1] = biological target: T1, MtAlba(I39) (Methanothermobacter thermautotrophicus …, UniProt O27527 1-91)
T1 sequence: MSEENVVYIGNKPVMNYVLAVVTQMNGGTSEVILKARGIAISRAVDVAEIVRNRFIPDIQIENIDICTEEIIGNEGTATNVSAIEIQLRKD

MtAlba(R39) = biological target: T2, MtAlba(R39) (Methanothermobacter thermautotrophicus, UniProt O27527 1-91, I39R)
T2 sequence: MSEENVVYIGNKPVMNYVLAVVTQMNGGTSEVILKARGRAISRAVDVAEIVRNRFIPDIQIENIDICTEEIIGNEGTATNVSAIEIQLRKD

MtAlba(I39) [2] = biological target: T1, MtAlba(I39); remark: listed apart in the source

B1: 36 bp dsDNA (dsDNA)
DNA 1: ATCAATTAAAGCGTTCTACGGCGTTTTAGATCTGAT
DNA 2: ATCAGATCTAAAACGCCGTAGAACGCTTTAATTGAT
In the case of B1, the binding result (MtAlba(I39) [1]) is reported as “no binding” and the Kd (MtAlba(R39)) is reported as about 200 nM.

In the case of UUAAAGCCCGUGGAAGAGCC (ssRNA) [ssRNA], the binding result (MtAlba(I39) [2]) is reported as “no binding” and the Kd (MtAlba(R39)) is reported as about 1500 nM.

B2: tRNAPro (structured_RNA)
RNA: GGGCGAGUAGCGCAGCUUGGUAGCGCAACUGGUUUGGGACCAGUGGGUCGGAGGUUCGAAUCCUCUCUCGUCCACCA
B2 was tested, and the binding result (MtAlba(I39) [2]) was “no binding” and the Kd (MtAlba(R39)) was about 1000 nM.
